Paper PMC3681735

Biological target: NtRPT6-GFP (Nicotiana tabacum) (UniProt L7UU40)

Substance: XopJ-myc (from UniProt A0AB38E6N7 1-316) (natural protein)
- proteasome activity (breakdown of Suc-LLVY-AMC) in total extracts of N. benthamiana leaves transiently expressing XopJ-myc, against the empty vector control: 40%
